The target in one assay is T1, Bqt4NTD R33A, O60158.
T1 chain: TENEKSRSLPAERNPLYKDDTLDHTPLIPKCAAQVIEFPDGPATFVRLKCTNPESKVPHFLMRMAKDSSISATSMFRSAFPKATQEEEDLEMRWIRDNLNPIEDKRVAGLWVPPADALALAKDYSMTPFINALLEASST
The experiment in a line: ITC. The settings on record: chain shown with the change;; parent: 11.4 ± 1.2.

Assay [1] concerns the target T2, Bqt4_(2–140), N-terminal domain of Bqt4 (S. pombe, UniProt O60158 2-140).
T2 chain: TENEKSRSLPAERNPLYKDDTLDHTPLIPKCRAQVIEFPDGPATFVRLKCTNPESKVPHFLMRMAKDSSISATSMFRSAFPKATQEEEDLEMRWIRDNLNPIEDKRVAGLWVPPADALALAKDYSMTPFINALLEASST
The experiment in a line: ITC. A general note: In ITC the heat of successive injections is recorded.

The target of assay [2] is T3, Bqt4_(2–140), N-terminal domain of Bqt4 (S. pombe, UniProt O60158 2-140).
T3 construct: Bqt4, S. pombe inner nuclear membrane protein, residues 2-140; also called Bqt4NTD; Bqt4NTD^WT; source: E. coli BL21(DE3), purified (Ni-NTA, on-beads Ulp1 digestion, Superdex200); not shown: His6, N-terminal, cleaved; SUMO, N-terminal, cleaved
T3 sequence (looked up): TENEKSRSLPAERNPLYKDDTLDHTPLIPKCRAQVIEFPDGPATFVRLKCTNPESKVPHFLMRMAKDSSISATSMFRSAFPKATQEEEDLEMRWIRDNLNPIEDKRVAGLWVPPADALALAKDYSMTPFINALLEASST
Nature of the assay: ITC; ITC200; peptide (Rap1 479-527 at 1000–1500 μM) titrated into Bqt4 2-140 (100–150 μM), 20°C, 20 mM Tris–HCl pH 8.0, 150 mM NaCl; one binding site model; two independent experiments. The settings on record: both partners purified.

A further assay has as its target T4, Bqt4NTD R33A (S. pombe, UniProt O60158 2-140, R33A).
T4 construct: Bqt4, S. pombe, residues 2-140; also called Bqt4 (R33A); source: E. coli BL21(DE3), purified (Ni-NTA, on-beads Ulp1 digestion, Superdex200); not shown: His6, N-terminal, cleaved; SUMO, N-terminal, cleaved
T4 sequence (looked up): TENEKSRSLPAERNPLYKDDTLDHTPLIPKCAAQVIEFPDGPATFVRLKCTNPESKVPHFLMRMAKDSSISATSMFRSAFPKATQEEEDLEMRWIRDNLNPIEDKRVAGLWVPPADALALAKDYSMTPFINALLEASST
The description is as above. Particulars: both partners purified.

Another assay has as its target T5, Bqt4NTD D90R, O60158.
T5 chain: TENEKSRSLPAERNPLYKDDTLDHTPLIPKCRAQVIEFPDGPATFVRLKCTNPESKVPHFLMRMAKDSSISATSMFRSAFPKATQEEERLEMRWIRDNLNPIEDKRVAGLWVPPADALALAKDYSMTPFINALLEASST
The experiment in a line: ITC. Particulars: chain shown with the change;; parent: 11.4 ± 1.2.

Another assay concerns the target T6, Bqt4NTD D90R (S. pombe, UniProt O60158 2-140, D90 into arginine).
T6 construct: Bqt4, S. pombe, residues 2-140; also called Bqt4^D90 substituted into arginine; source: E. coli BL21(DE3), purified (Ni-NTA, on-beads Ulp1 digestion, Superdex200); not shown: His6, N-terminal, cleaved; SUMO, N-terminal, cleaved
T6 sequence (looked up): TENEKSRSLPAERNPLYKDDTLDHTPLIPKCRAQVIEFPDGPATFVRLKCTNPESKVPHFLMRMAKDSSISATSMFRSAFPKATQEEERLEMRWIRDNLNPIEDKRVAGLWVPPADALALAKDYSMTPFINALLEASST
Nature of the assay: ITC; ITC200; peptide (Rap1 479-527 at 1000–1500 μM) titrated into Bqt4 2-140 (100–150 μM), 20°C, 20 mM Tris–HCl pH 8.0, 150 mM NaCl; one binding site model; two independent experiments. The settings on record: both partners purified.

Assay [3] deals with T7, SUMO_(21–92)-Bqt4_(8–140) fusion protein (S. pombe, UniProt O60158 8-140).
T7 construct: Bqt4, S. pombe, residues 8-140; crystallisation fusion; also called SUMO-Bqt4NTD; Sumo-fused Bqt4_(8–140); not shown: SUMO (residues 21-92), N-terminal, kept
T7 sequence (looked up): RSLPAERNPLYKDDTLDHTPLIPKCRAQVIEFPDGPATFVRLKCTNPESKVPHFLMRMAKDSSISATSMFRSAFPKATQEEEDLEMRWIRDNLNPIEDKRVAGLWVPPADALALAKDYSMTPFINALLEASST
The experiment in a line: crystal structure; Bqt4 construct and peptide mixed at a molar ratio of 1:1.5; molecular replacement. The settings on record: both partners purified.

In assay [4] the target is T3, Bqt4_(2–140), N-terminal domain of Bqt4. Nature of the assay: pull-down; 30 μg GST-tagged Rap1 and 20 μg purified Bqt4 on glutathione-Sepharose 4B beads, 25 mM Tris pH 8.0, 100 mM NaCl, 10% glycerol, 4°C, 40 min; SDS-PAGE. Particulars: both partners purified.
The target in the next assay is T8, Bqt4_(2–180) (S. pombe, UniProt O60158 2-180).
T8 construct: Bqt4, S. pombe, residues 2-180; also called N-terminal region of Bqt4; source: E. coli BL21(DE3), purified (Ni-NTA, on-beads Ulp1 digestion, Superdex200); not shown: His6, N-terminal, cleaved; SUMO, N-terminal, cleaved
T8 sequence (looked up): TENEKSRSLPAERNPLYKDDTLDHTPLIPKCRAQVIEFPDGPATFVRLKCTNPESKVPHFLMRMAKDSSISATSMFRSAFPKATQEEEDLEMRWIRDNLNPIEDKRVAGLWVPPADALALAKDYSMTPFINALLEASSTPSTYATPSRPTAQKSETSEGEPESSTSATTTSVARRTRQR
Described as above. Particulars: both partners purified.

Assay [5] deals with T3, Bqt4_(2–140), N-terminal domain of Bqt4. The experiment in a line: fluorescence polarisation; 100 nM FITC-labeled Lem2BBM with Bqt4NTD from 20 nM to 50 μM; 25 mM Tris–HCl pH 8.0, 150 mM NaCl, 10% glycerol; 25°C. Particulars: both partners purified. A general note: Polarisation of emitted light reports the rotation of a fluorescent probe.

Ends that are not written are not given here.

B1: Rap1_(479–527) S497E (domain or fragment, S. pombe, UniProt Q96TL7 479-527, looked up)
chain: EIPLLSDYSDSENISEKSEDDEEAFEKQVTSSYSSPIKVKSQGKSSKGS
notes: phosphomimetic; also called Rap1^S497E; source: E. coli BL21(DE3), purified (glutathione-Sepharose 4B, on-beads 3C digestion, Superdex75); not shown: GST, N-terminal, cleaved
Broadly, the Kd is the concentration at which binding is half-saturated. For B1, the dissociation constant (Kd) is 24.1 µM with Bqt4NTD R33A, O60158 and 2.6 µM in assay [1]. The binding result (in assay [2]; with Bqt4NTD R33A) was “binds” each time.

B2: Rap1_(479–527) S513E (domain or fragment, S. pombe, UniProt Q96TL7 479-527, looked up)
chain: EIPLLSDYSDSENISEKSSDDEEAFEKQVTSSYSEPIKVKSQGKSSKGS
notes: phosphomimetic; also called Rap1^S513E; source: E. coli BL21(DE3), purified (glutathione-Sepharose 4B, on-beads 3C digestion, Superdex75); not shown: GST, N-terminal, cleaved
For the molecule B2, the Kd in the assay with Bqt4NTD D90R, O60158 was 21.2 µM; in assay [1], 57.8 µM. Moreover, the “fold decrease in binding affinity against wild-type Rap1” value in assay [2] stood at 5 fold. Moreover, in the assay with Bqt4NTD D90R, the binding result is recorded as “binds”.

B3: Rap1_(498–512) (peptide)
peptide: GPLDDEEAFEKQVTSSYS
notes: three extra residues left at the N-terminus after removal of GST by 3C protease; also called Rap1BBM (in the crystal); source: E. coli BL21(DE3), purified (glutathione-Sepharose 4B, on-beads 3C digestion, Superdex75); not shown: GST, N-terminal, cleaved
With B3, the binding result in assay [3] was “binds”.

B4: GST-tagged Rap1_(490–513) (peptide, UniProt Q96TL7 490-513, looked up)
chain: ENISEKSSDDEEAFEKQVTSSYSS
notes: also called GST-Rap1BBM; source: E. coli BL21(DE3); not shown: GST, N-terminal, kept
For B4, the binding result (in assay [4]; in the assay with Bqt4_(2–180)) was “binds” each time.

B5: FITC-labeled Lem2BBM (peptide, UniProt Q10109 261-279, looked up)
chain: SAEEDDELFQNYVLQQTRK
modifications: also: FITC label, position not given here
notes: also called fluorescent FITC-labeled Lem2BBM; source: E. coli BL21(DE3), purified; labeled with EZLabel Protein FITC Labeling Kit; not shown: GST, N-terminal, cleaved
B5 gave a Kd in assay [5] of 0.61 µM.

Values taken from article PMC6379675, “Structural insights into chromosome attachment to the nuclear envelope by an inner nuclear membrane protein Bqt4 in fission yeast” (Nucleic Acids Research, 2018).
